Reference: patent US20250163127A1
Like-named read-outs stand apart in the source and are kept apart here. Each block holds one substance with its values, some of them ahead of it.

How the values were obtained:
CD28 (human) [1] = molecular target: CD28 (human) (UniProt P10747); experiment: flow cytometry, cells expressing CD28
CTLA-4 (human) [2] = experiment: flow cytometry, cells expressing CTLA-4
PD-L1 (human) [3] = experiment: flow cytometry, CHO cells expressing PD-L1
Target sequence in this assay (chain, as listed by the source): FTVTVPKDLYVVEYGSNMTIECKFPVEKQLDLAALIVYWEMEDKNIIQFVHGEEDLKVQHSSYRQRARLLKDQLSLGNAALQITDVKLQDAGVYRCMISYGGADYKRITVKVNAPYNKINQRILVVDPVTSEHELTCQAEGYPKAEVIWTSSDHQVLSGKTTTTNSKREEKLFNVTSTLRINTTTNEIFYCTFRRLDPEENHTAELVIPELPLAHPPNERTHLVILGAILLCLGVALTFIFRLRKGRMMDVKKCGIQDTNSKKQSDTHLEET

CTLA-4 (human) [4] = experiment: flow cytometry, CHO cells expressing CTLA4
Target sequence in this assay (chain, as listed by the source): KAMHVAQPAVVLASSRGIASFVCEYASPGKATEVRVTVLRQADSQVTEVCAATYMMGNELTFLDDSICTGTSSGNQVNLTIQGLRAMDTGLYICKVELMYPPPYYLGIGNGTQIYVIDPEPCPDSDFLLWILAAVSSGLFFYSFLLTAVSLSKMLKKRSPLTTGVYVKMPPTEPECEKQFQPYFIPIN

[5] = molecular target: CTLA-4 (Homo sapiens (Human)) (UniProt P16410); experiment: flow cytometry, transfected cells
CD28 (human) [6] = molecular target: CD28 (human) (UniProt P10747); experiment: flow cytometry, transfected cells
PD-L1 (human) [7] = experiment: flow cytometry, cells expressing PD-L1
PD-L1 (human) [8] = experiment: flow cytometry, CHO cells stably expressing PD-L1
CTLA4 (human) = experiment: flow cytometry, CHO cells stably expressing CTLA4
CD28 (human) [9] = molecular target: CD28 (human) (UniProt P10747); experiment: flow cytometry, Jurkat cells (CD28)
CD28 (human) [10] = molecular target: CD28 (human) (UniProt P10747); experiment: flow cytometry, Jurkat cells (CD28); remark: listed apart in the source
[11] = molecular target: CD28, full-length, expressed on transfected cells (Homo sapiens (Human)) (UniProt P10747); experiment: flow cytometry, cells expressing target
[12] = molecular target: ICOS (Homo sapiens (Human)) (UniProt Q9Y6W8); experiment: flow cytometry, transfected cells
Sequence of ICOS (Homo sapiens (Human)) (Q9Y6W8 21-199 limits assumed): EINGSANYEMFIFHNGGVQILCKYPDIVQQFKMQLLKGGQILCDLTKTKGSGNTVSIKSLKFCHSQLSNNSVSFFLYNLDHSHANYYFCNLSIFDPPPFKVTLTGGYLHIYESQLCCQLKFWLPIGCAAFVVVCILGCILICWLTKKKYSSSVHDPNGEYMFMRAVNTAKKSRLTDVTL

Sequence of WT CD80 ECD-Fc (R&D) (Fc fusion) (chain): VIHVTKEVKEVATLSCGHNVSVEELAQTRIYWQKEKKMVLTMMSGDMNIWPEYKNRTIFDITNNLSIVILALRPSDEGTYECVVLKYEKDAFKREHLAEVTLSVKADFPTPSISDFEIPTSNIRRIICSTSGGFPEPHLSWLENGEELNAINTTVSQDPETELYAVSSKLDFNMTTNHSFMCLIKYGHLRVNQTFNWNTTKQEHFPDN

MFI (CD28 (human) [1]): 26 MFI
MFI (CTLA-4 (human) [2]): 38 MFI
Substance: variant CD80 E24G/L25P/L70Q/A91G/I118V/T120S/N152T (Fc fusion)

MFI at 33.3 nM (PD-L1 (human) [3]): 19200 MFI
MFI at 33.3 nM (CTLA-4 (human) [4]): 278000 MFI
Substance: variant CD80 E35D/M43I/M47V/K89N (Fc fusion)

MFI [5]: 233000 MFI
MFI (CD28 (human) [6]): 98200 MFI
Substance: ICOSL-Fc N52S/N57A/Q100A (Fc fusion)

MFI (CTLA-4 (human) [2]): 148 MFI
Substance: variant CD80 K89E/T130A (Fc fusion)

MFI (PD-L1 (human) [7]): 9 MFI
MFI (CD28 (human) [1]): 39 MFI
Substance: variant CD80 A91G/S103P (Fc fusion)

MFI at 33.3 nM (CTLA-4 (human) [4]): 208000 MFI
Substance: variant CD80 E35D/T41S/M43I/A71G/D90G (Fc fusion)

MFI at 33.3 nM (PD-L1 (human) [3]): 32400 MFI
MFI at 33.3 nM (CTLA-4 (human) [4]): 275000 MFI
Substance: variant CD80 E35D/D46E/M47V/A71D/D90G (Fc fusion)

MFI at 33.3 nM (PD-L1 (human) [8]): 47900 MFI
MFI at 33.3 nM (CTLA4 (human)): 47600 MFI
Substance: CD80 variant Q33L/E35D/M47V IgV-Fc (Fc fusion)

MFI at 33.3 nM (PD-L1 (human) [8]): 62100 MFI
MFI at 33.3 nM (CTLA4 (human)): 28900 MFI
Substance: CD80 variant Q33L/E35D/M47V/T79A IgV-Fc (Fc fusion)

MFI at 33.3 nM (CD28 (human) [9]): 3100 MFI
MFI at 33.3 nM (CTLA-4 (human) [4]): 209000 MFI
Substance: variant CD80 E35D/T41S/M43I/M47L/A71G (Fc fusion)

MFI (CD28 (human) [1]): 33 MFI
MFI (CTLA-4 (human) [2]): 121 MFI
Substance: variant CD80 L65H/D90G/T110A/F116L (Fc fusion)

Fold change to WT CD80 (CD28 (human) [9]): 0.35 fold
MFI at 33.3 nM (CD28 (human) [9]): 6240 MFI
Fold change to WT CD80 (PD-L1 (human) [3]): 3.13 fold
MFI at 33.3 nM (PD-L1 (human) [3]): 37100 MFI
MFI at 33.3 nM (CTLA-4 (human) [4]): 212000 MFI
Substance: variant CD80 E35D/M47V/A71G/E88D (Fc fusion)

MFI at 33.3 nM (CD28 (human) [9]): 692 MFI
MFI at 33.3 nM (PD-L1 (human) [3]): 35500 MFI
Substance: variant CD80 E35D/M47V/N48T/L85Q (Fc fusion)

Fold change to WT CD80 (CD28 (human) [9]): 0.2 fold
MFI at 33.3 nM (CD28 (human) [9]): 3540 MFI
MFI at 33.3 nM (PD-L1 (human) [3]): 52400 MFI
Fold change to WT CD80 (CTLA-4 (human) [4]): 1.47 fold
MFI at 33.3 nM (CTLA-4 (human) [4]): 231000 MFI
Substance: variant CD80 H18Y/A26E/E35D/M47L/L85Q/D90G (Fc fusion)

MFI at 33.3 nM (CD28 (human) [10]): 7630 MFI
MFI at 33.3 nM (PD-L1 (human) [8]): 7940 MFI
MFI at 33.3 nM (CD28 (human) [9]): 18000 MFI
MFI at 33.3 nM (PD-L1 (human) [3]): 11900 MFI
Substance: WT CD80 ECD-Fc (R&D) (Fc fusion)

MFI [5]: 233000 MFI
MFI (CD28 (human) [6]): 161000 MFI
Substance: ICOSL-Fc N52R/N57F/Q100N (Fc fusion)

MFI at 33.3 nM (CD28 (human) [9]): 542 MFI
MFI at 33.3 nM (CTLA-4 (human) [4]): 256000 MFI
Substance: variant CD80 V22D/E35D/M47L/L85Q (Fc fusion)

MFI (PD-L1 (human) [7]): 9 MFI
parental ratio (PD-L1 (human) [7]): 0.13
MFI (CD28 (human) [1]): 105 MFI
MFI (CTLA-4 (human) [2]): 200 MFI
parental ratio (CTLA-4 (human) [2]): 0.96
Substance: variant CD80 V20L/L70Q/A91S/I118V/T120S/T130A (Fc fusion)

MFI at 33.3 nM (PD-L1 (human) [3]): 21400 MFI
MFI at 33.3 nM (CTLA-4 (human) [4]): 2680 MFI
Substance: variant CD80 Q33R/E35D/M47V/N48K/L85M/F92L (Fc fusion)

MFI at 33.3 nM (CD28 (human) [10]): 7540 MFI
Substance: CD80 variant E35D/D46V/M47I/A71G/F92V IgV-Fc (Fc fusion)

MFI [5]: 79400 MFI
MFI (CD28 (human) [6]): 71900 MFI
Substance: ICOSL-Fc N52S/N57L/Q100G (Fc fusion)

MFI [11]: 31100 MFI
Substance: ICOSL ECD-Fc N52S/E90A (Fc fusion)

MFI (CD28 (human) [6]): 21000 MFI
Substance: ICOSL-Fc N52P/N57P (Fc fusion)

MFI at 33.3 nM (CD28 (human) [9]): 15500 MFI
MFI at 33.3 nM (PD-L1 (human) [3]): 29800 MFI
Substance: variant CD80 E35D/M47I/Y87Q/K89E (Fc fusion)

MFI (CD28 (human) [1]): 61 MFI
Substance: variant CD80 M38T/L70Q/E77G/A91G/I118V/T120S/T130A/N152T (Fc fusion)

MFI [5]: 504000 MFI
MFI (CD28 (human) [6]): 154000 MFI
Substance: ICOSL-Fc N52R/N57F/Q100P (Fc fusion)

MFI [5]: 10200 MFI
MFI (CD28 (human) [6]): 5720 MFI
Substance: ICOSL-Fc N52G/N57P/Q100D (Fc fusion)

MFI (PD-L1 (human) [7]): 6 MFI
Substance: variant CD80 L70Q/A91G/N144D (Fc fusion)

MFI at 33.3 nM (CD28 (human) [10]): 314 MFI
MFI at 33.3 nM (CTLA4 (human)): 2950 MFI
Substance: CD80 variant A26E/E35D/M43I/M47L/L85Q/K86E/R94W IgV-Fc (Fc fusion)

MFI [11]: 54 MFI
Substance: ICOSL ECD-Fc N52S/T113E (Fc fusion)

MFI (PD-L1 (human) [7]): 5 MFI
parental ratio (PD-L1 (human) [7]): 0.08
MFI (CD28 (human) [1]): 100 MFI
MFI (CTLA-4 (human) [2]): 119 MFI
parental ratio (CTLA-4 (human) [2]): 0.57
Substance: variant CD80 R29H/E52G/L70R/E88G/A91G/T130A (Fc fusion)

MFI (PD-L1 (human) [7]): 6 MFI
parental ratio (PD-L1 (human) [7]): 0.08
MFI (CD28 (human) [1]): 32 MFI
parental ratio (CD28 (human) [1]): 0.34
MFI (CTLA-4 (human) [2]): 65 MFI
parental ratio (CTLA-4 (human) [2]): 0.31
Substance: variant CD80 T28S/L70Q/A91G/E95K/I118V/T120S/I126V/T130A/K169E (Fc fusion)

MFI at 33.3 nM (CD28 (human) [9]): 2840 MFI
MFI at 33.3 nM (PD-L1 (human) [3]): 44400 MFI
Substance: variant CD80 E35D/T41S/M43I/M47V/A71G (Fc fusion)

MFI [5]: 340000 MFI
MFI (CD28 (human) [6]): 138000 MFI
Substance: ICOSL-Fc N52D/N57A/Q100A (Fc fusion)

MFI [12]: 303000 MFI
MFI (CD28 (human) [6]): 98700 MFI
Substance: ICOSL-Fc N52G/Q100A (Fc fusion)

Fold change to WT CD80 (CD28 (human) [9]): 0.07 fold
MFI at 33.3 nM (CD28 (human) [9]): 1290 MFI
MFI at 33.3 nM (PD-L1 (human) [3]): 11900 MFI
Fold change to WT CD80 (CTLA-4 (human) [4]): 1.44 fold
MFI at 33.3 nM (CTLA-4 (human) [4]): 226000 MFI
Substance: variant CD80 E35D/M42V/M47V/E52D/L85Q (Fc fusion)
